We go through 34 molecules from patent US9296810 (Novartis, dated 2016).

In experiment [1] the target is T1, Human Serum Albumin (HSA) (human, UniProt P02768 25-609). Description: yeast display selection.
Experiment [2] has as its target T1, Human Serum Albumin (HSA). Nature of the experiment: sandwich ELISA. As for the experimental part:
(§1) The binding characteristic of the multispecific and bispecific binders from Examples 6 and 7 were assessed as follows. […] Aliquots of cleared lysate of wild-type Fn10 (lane1), clone 87 (multispecific) (lane2), clone 89 (bispecific) (lane3) and PBS were added to the wells and incubated for 1 hour at room-temperature. These were run at different concentrations 1, 2 and 3. After washing 5 times with PBS/0.05% Tween, the wells were incubated with 1 µg/ml HSA in PBS. Detection was performed with HRP conjugated chicken anti-human HSA antibody (Abcam). The ELISA was developed with a […] substrate and the OD-values measured at 450 nm.

The target of experiment [3] is T1, Human Serum Albumin (HSA). Description: sandwich ELISA: VEGFR2-Fc immobilized, cleared lysate, then HSA, anti-HSA-HRP detection. As for the experimental part:
as §1

Where a chain is given by its changes, count along the chain named.

T1 sequence (P02768 25-609 limits assumed): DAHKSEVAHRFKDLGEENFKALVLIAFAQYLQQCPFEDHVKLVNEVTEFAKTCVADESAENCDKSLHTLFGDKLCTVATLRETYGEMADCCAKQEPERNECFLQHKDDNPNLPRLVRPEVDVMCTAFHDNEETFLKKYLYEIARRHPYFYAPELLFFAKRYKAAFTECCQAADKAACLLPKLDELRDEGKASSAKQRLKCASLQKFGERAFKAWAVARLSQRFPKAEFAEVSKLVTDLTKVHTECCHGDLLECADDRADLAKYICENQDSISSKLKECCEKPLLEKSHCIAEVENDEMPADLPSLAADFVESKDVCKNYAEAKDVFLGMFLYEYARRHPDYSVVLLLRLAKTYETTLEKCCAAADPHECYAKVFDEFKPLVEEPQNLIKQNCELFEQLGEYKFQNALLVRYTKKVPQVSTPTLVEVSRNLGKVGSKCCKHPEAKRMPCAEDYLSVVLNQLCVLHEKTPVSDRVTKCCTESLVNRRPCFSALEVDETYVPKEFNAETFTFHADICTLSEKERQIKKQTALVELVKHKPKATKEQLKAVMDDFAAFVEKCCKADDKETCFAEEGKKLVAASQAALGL

B1: SEQ ID NO 37 (designed binder)
chain: VSDVPRDLEVVAATPTSLLISWDAPAVTVRYYRITYGKLSQPTKRREFTVPGSKSTATISRLKPGLDYTITVYAVTGRGDSPASSKPISINYHYEL
For the molecule B1, the binding result in experiment [1] is recorded as “binds”.

B2: SEQ ID NO 33 (designed binder)
chain: VSDVPRDLEVVAATPTSLLISWDAPAVTVRYYRITYGVMHDKHPKKEFTVPGSKSTATISGLKRGRDYTITVYAVTGRGDSPASSKPISINYKSEA
For the molecule B2, the binding result in experiment [1] was “binds”.

B3: SEQ ID NO 30 (designed binder)
chain: VSDVPRDLEVVAATPTSLLISWDAPAVTVRYYRITYGIPAKKHHTHEFTVPGSKSTATITGLKSGVDYTITVYAVTGRGDSPASSKPISINYRTET
With B3, the binding result in experiment [1] is listed as “binds”.

B4: SEQ ID NO 10 (designed binder)
chain: VSDVPRDLEVVAATPTSLLISWDAPAVTVRYYRITYGKTGHKSSDHEFTVPGSKSTATIGGMKGGVDYTITVYAVTGRGDSPASSKPISINYRFER
Consider B4, for which, in experiment [1], the binding result was “binds”.

B5: SEQ ID NO 28 (designed binder)
chain: VSDVPRDLEVVAATPTSLLISWDAPAVTVRYYRITYGKVKAKAPLVEFTVPGSKSTATISSLKTGKDYTITVYAVTGRGDSPASSKPISINYRYEG
Take B5: in experiment [1], the binding result is listed as “binds”.

B6: SEQ ID NO 24 (designed binder)
chain: VSDVPRDLEVVAATPTSLLISWDAPAVTVRYYRITYGEASKNHRQHEFTVPGSKSTATISRIKRGTDYTITVYAVTGRGDSPASSKPISINYSPES
As for B6, the binding result in experiment [1] is “binds”.

B7: SEQ ID NO 16 (designed binder)
chain: VSDVPRDLEVVAATPTSLLISWDAPAVTVRYYRITYGITGKEKSFVEFTVPGSKSTATIRDVKKGKDYTITVYAVTGRGDSPASSKPISINYRAET
With B7, in experiment [1], the binding result is on record as “binds”.

B8: SEQ ID NO 27 (designed binder)
chain: VSDVPRDLEVVAATPTSLLISWDAPAVTVRYYRITYGLTKRKSLISEFTVPGSKSTATIIGLKAGKDYTITVYAVTGRGDSPASSKPISINYKTEN
With B8, the binding result in experiment [1] is recorded as “binds”.

B9: SEQ ID NO 26 (designed binder)
chain: VSDVPRDLEVVAATPTSLLISWDAPAVTVRYYRITYGKTARKYHMQEFTVPGSKSTATISGIKRGTDYTITVYAVTGRGDSPASSKPISINYNSEH
Consider B9, for which the binding result in experiment [1] was “binds”.

B10: SEQ ID NO 9 (designed binder)
chain: VSDVPRDLEVVAATPTSLLISWDAPAVTVRYYRITYGQLDKKHHDAEFTVPGSKSTATITRLKRGRDYTITVYAVTGRGDSPASSKPISINYSPER
On to B10, for which, in experiment [1], the binding result is reported as “binds”.

B11: SEQ ID NO 39 (designed binder)
chain: VSDVPRDLEVVAATPTSLLISWDAPAVTVRYYRITYGKKHKHTTVREFTVPGSKSTATIAGKSLGGDYTITVYAVTGRGDSPASSKPISINYTSET
For the molecule B11, the binding result in experiment [1] is recorded as “binds”.

B12: SEQ ID NO 31 (designed binder)
chain: VSDVPRDLEVVAATPTSLLISWDAPAVTVRYYRITYGEVHGHHTAHEFTVPGSKSTATIVRLKRGKDYTITVYAVTGRGDSPASSKPISINYCPER
For the molecule B12, in experiment [1], the binding result is given as “binds”.

B13: SEQ ID NO 17 (designed binder)
chain: VSDVPRDLEVVAATPTSLLISWDAPAVTVRYYRITYGQRVGKTKVHEFTVPGSKSTATIRGLKRGKDYTITVYAVTGRGDSPASSKPISINYFPET
Take B13: the binding result in experiment [1] is recorded as “binds”.

B14: SEQ ID NO 41 (designed binder)
chain: VSNIPKDLEVVAATPTSLLISWDAPAVTVRYYRITYGQTMNGQSNVEFTVPGSKSTATISPSKLGLDYTITVYAVTGRGDSPASSKPISINYLSET
As to B14, the binding result in experiment [1] is given as “binds”.

B15: clone 87 (multispecific Fn3-based binding molecule; VEGFR2 top side binder fused to bottom side sequence 8 from FIG. 7 with GS linker) (designed binder)
chain: MGVSDVPRDLEVVAATPTSLLISWRHPHFPTRYYRITYGETGGNSPVQEFTVPLQPPLATISGLKPGVDYTITVYAVTKERNGRELFTPISINYRTGGGGSGGGGSVSDVPRDLEVVAATPTSLLISWDAPAVTVRYYRITYGRTDAKSTRKEFTVPGSKSTATIGELKRGRDYTITVYAVTGRGDSPASSKPISINYRPEKENLYFQGHHHHHH
notes: ELISA used cleared lysate, Biacore soluble protein; also called Fibronectin clone 87 (multispecific)
As to B15, the binding result in experiment [2] is given as “binds”.

B16: SEQ ID NO 36 (designed binder)
chain: VSDVPRDLEVVAATPTSLLISWDAPAVTVRYYRITYGNIVAANALPEFTVPGSKSTATITGLMSGIDYTITVYAVTGRGDSPASSKPISINYSTEY
Consider B16, for which the binding result in experiment [1] is reported as “binds”.

B17: SEQ ID NO 25 (designed binder)
chain: VSDVPRDLEVVAATPTSLLISWDAPAVTVRYYRITYGEKPRKYRSSEFTVPGSKSTATIRHSKHGKDYTITVYAVTGRGDSPASSKPISINYMREI
On to B17, for which, in experiment [1], the binding result is “binds”.

B18: SEQ ID NO 19 (designed binder)
chain: VSDVPRDLEVVAATPTSLLISWDAPAVTVRYYRITYGYGAANRRAHEFTVPGSKSTATISGLKRGRDYTITVYAVTGRGDSPASSKPISINYRHEL
Regarding B18, the binding result in experiment [1] is reported as “binds”.

B19: SEQ ID NO 29 (designed binder)
chain: B18 chain with Y38D, G39R, A41K, R43T, A45I, H46K, H94L, L96G
On to B19, for which the binding result in experiment [1] is reported as “binds”.

B20: SEQ ID NO 22 (designed binder)
chain: VSDVPRDLEVVAATPTSLLISWDAPAVTVRYYRITYGKSHGHRQKHEFTVPGSKSTATISDYRQGGDYTITVYAVTGRGDSPASSKPISINYKGEL
With B20, the binding result in experiment [1] is “binds”.

B21: SEQ ID NO 34 (designed binder)
chain: VSDVPRDLEVVAATPTSLLITWDAPAVTVRYYRITYGVAGKTKPRSEFTVPGSKSTATIPHLKLGHDYTITVYAVTGRGDSPASSKPISINYRAEH
As for B21, the binding result in experiment [1] was “binds”.

B22: SEQ ID NO 18 (designed binder)
chain: VSDVPRDLEVVAATPTSLLISWDAPAVTVRYYRITYGHTAKTRHHHEFTVPGSKSTATICKSRRGSDYTITVYAVTGRGDSPASSKPISINYQAET
As to B22, the binding result in experiment [1] was “binds”.

B23: SEQ ID NO 14 (designed binder)
chain: VSDVPRDLEVVAATPTSLLISWDAPAVTVRYYRITYGVLSSTKHLKEFTVPGSKSTATISGLKLGRDYTITVYAVTGRGDSPASSKPISINYRMES
Consider B23, for which the binding result in experiment [1] is on record as “binds”.

B24: SEQ ID NO 23 (designed binder)
chain: B23 chain with L39M, S40G, S41D, H44K, L45V, S60E, G61R, L62I, M94K, S96H
On to B24, for which, in experiment [1], the binding result was “binds”.

B25: SEQ ID NO 32 (designed binder)
chain: B23 chain with V38M, L39I, S41G, T42D, H44R, L45R, K46R, S60D, G61R, M94L
Regarding B25, the binding result in experiment [1] was “binds”.

B26: SEQ ID NO 13 (designed binder)
chain: VSDVPRDLEVVAATPTSLLISWDAPAVTVRYYRITYGTSVDDRKLREFTVPGSKSTATISRLKRGRDYTITVYAVTGRGDSPASSKPISINYRAEN
For B26, the binding result in experiment [1] is “binds”.

B27: SEQ ID NO 15 (designed binder)
chain: B26 chain with T38S, S39R, V40A, D41S, D42H, R46T, R61G, R64T, A94T, N96H
Regarding B27, the binding result in experiment [1] was “binds”.

B28: SEQ ID NO 35 (designed binder)
chain: VSDVPRDLEVVAATPTSLLISWDAPAVTVRYYRITYGKNGRHNLDHEFTVPGSKSTATISGLKRGVDYTITVYAVTGRGDSPASSKPISINYHNEN
On to B28, for which the binding result in experiment [1] was “binds”.

B29: SEQ ID NO 21 (designed binder)
chain: VSDVPRDLEVVAATPTSLLISWDAPAVTVRYYRITYGDSRHHPRAHEFTVPGSKSTATITGCKRGHDYTITVYAVTGRGDSPASSKPISINYRYEH
With B29, in experiment [1], the binding result is recorded as “binds”.

B30: clone 89 (bispecific Fn3-based binding molecule; VEGFR2/Bottom side SEQ ID NO: 8 merged molecule) (designed binder)
chain: MGVSDVPRDLEVVAATPTSLLISWRHPHFPTRYYRITYGRTDAKSTRKEFTVPLQPPLATIGELKRGRDYTITVYAVTKERNGRELFTPISINYRPEKENLYFQGHHHHHH
notes: the entry ends in ENLYFQG-HHHHHH; also called VEGFR2-HAS; single bispecific fibronectin molecule
As to B30, the binding result in experiment [3] is recorded as “binds”.

B31: SEQ ID NO 40 (designed binder)
chain: VSDVPRDLEVVAATPTSLLISWDAPAVTVRYYRITYGRPGHNSKVHEFTVPGSKSTATIDGAKKGHDYTITVYAVTGRGDSPASSKPISINYIMEH
With B31, the binding result in experiment [1] was “binds”.

B32: SEQ ID NO 12 (designed binder)
chain: VSDVPRDLEVVAATPTSLLISWDAPAVTVRYYRITYGRTKGKSKLKEFTVPGSKSTATIPGLKQGEDYTITVYAVTGRGDSPASSKPISINYMFER
B32: the binding result in experiment [1] is on record as “binds”.

B33: SEQ ID NO 11 (designed binder)
chain: VSDVPRDLEVVAATPTSLLISWDAPAVTVRYYRITYGKKDRASHLKEFTVPGSKSTATIGHIKGGYDYTITVYAVTGRGDSPASSKPISINYSGEP
On to B33, for which the binding result in experiment [1] is on record as “binds”.

B34: SEQ ID NO 38 (designed binder)
chain: VSDVPRDLEVVAATPTSLLISWDAPAVTVRYYRITYGKSSHNSAAKEFTVPGSKSTATITRLKSGTDYTITVYAVTGRGDSPASSKPISINYKPEY
Turning to B34, the binding result in experiment [1] is recorded as “binds”.
